From IntAct's records for PubMed 25416956

B1: Inactive peptidyl-prolyl cis-trans isomerase FKBP6 (Homo sapiens), O75344 (parent)
chain: MGGSALNQGVLEGDDAPGQSLYERLSQRMLDISGDRGVLKDVIREGAGDLVAPDASVLVKYSGYLEHMDRPFDSNYFRKTPRLMKLGEDITLWGMELGLLSMRRGELARFLFKPNYAYGTLGCPPLIPPNTTVLFEIELLDFLDCAESDKFCALSAEQQDQFPLQKVLKVAATEREFGNYLFRQNRFYDAKVRYKRALLLLRRRSAPPEEQHLVEAAKLPVLLNLSFTYLKLDRPTIALCYGEQALIIDQKNAKALFRCGQACLLLTEYQKARDFLVRAQKEQPFNHDINNELKKLASCYRDYVDKEKEMWHRMFAPCGDGSTAGES
partner: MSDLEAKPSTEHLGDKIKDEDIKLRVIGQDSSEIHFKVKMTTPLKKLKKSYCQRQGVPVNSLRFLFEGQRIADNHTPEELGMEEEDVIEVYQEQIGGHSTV
B2: Keratin, type II cytoskeletal 6A (Homo sapiens), P02538 (parent)
chain: MASTSTTIRSHSSSRRGFSANSARLPGVSRSGFSSVSVSRSRGSGGLGGACGGAGFGSRSLYGLGGSKRISIGGGSCAISGGYGSRAGGSYGFGGAGSGFGFGGGAGIGFGLGGGAGLAGGFGGPGFPVCPPGGIQEVTVNQSLLTPLNLQIDPTIQRVRAEEREQIKTLNNKFASFIDKVRFLEQQNKVLETKWTLLQEQGTKTVRQNLEPLFEQYINNLRRQLDSIVGERGRLDSELRGMQDLVEDFKNKYEDEINKRTAAENEFVTLKKDVDAAYMNKVELQAKADTLTDEINFLRALYDAELSQMQTHISDTSVVLSMDNNRNLDLDSIIAEVKAQYEEIAQRSRAEAESWYQTKYEELQVTAGRHGDDLRNTKQEIAEINRMIQRLRSEIDHVKKQCANLQAAIADAEQRGEMALKDAKNKLEGLEDALQKAKQDLARLLKEYQELMNVKLALDVEIATYRKLLEGEECRLNGEGVGQVNISVVQSTVSSGYGGASGVGSGLGLGGGSSYSYGSGLGVGGGFSSSSGRAIGGGLSSVGGGSSTIKYTTTSSSSRKSYKH
partner: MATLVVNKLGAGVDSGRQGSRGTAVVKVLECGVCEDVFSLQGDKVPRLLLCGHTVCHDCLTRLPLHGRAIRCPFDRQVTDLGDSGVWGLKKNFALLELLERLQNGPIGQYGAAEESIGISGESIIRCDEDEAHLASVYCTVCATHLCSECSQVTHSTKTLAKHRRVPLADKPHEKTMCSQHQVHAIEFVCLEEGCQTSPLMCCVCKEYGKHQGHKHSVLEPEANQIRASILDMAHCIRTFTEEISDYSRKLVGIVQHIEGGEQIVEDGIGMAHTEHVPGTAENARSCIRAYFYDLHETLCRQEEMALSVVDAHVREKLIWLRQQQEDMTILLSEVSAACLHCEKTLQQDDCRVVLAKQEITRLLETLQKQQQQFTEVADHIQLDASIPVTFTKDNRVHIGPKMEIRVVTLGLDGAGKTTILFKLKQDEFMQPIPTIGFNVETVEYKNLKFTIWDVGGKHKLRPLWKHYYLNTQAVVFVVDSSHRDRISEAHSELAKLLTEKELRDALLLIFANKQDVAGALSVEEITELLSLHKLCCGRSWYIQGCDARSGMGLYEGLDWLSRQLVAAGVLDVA
B3: DNA ligase 4 (Homo sapiens), P49917 (parent)
chain: MAASQTSQTVASHVPFADLCSTLERIQKSKGRAEKIRHFREFLDSWRKFHDALHKNHKDVTDSFYPAMRLILPQLERERMAYGIKETMLAKLYIELLNLPRDGKDALKLLNYRTPTGTHGDAGDFAMIAYFVLKPRCLQKGSLTIQQVNDLLDSIASNNSAKRKDLIKKSLLQLITQSSALEQKWLIRMIIKDLKLGVSQQTIFSVFHNDAAELHNVTTDLEKVCRQLHDPSVGLSDISITLFSAFKPMLAAIADIEHIEKDMKHQSFYIETKLDGERMQMHKDGDVYKYFSRNGYNYTDQFGASPTEGSLTPFIHNAFKADIQICILDGEMMAYNPNTQTFMQKGTKFDIKRMVEDSDLQTCYCVFDVLMVNNKKLGHETLRKRYEILSSIFTPIPGRIEIVQKTQAHTKNEVIDALNEAIDKREEGIMVKQPLSIYKPDKRGEGWLKIKPEYVSGLMDELDILIVGGYWGKGSRGGMMSHFLCAVAEKPPPGEKPSVFHTLSRVGSGCTMKELYDLGLKLAKYWKPFHRKAPPSSILCGTEKPEVYIEPCNSVIVQIKAAEIVPSDMYKTGCTLRFPRIEKIRDDKEWHECMTLDDLEQLRGKASGKLASKHLYIGGDDEPQEKKRKAAPKMKKVIGIIEHLKAPNLTNVNKISNIFEDVEFCVMSGTDSQPKPDLENRIAEFGGYIVQNPGPDTYCVIAGSENIRVKNIILSNKHDVVKPAWLLECFKTKSFVPWQPRFMIHMCPSTKEHFAREYDCYGDSYFIDTDLNQLKEVFSGIKNSNEQTPEEMASLIADLEYRYSWDCSPLSMFRRHTVYLDSYAVINDLSTKNEGTRLAIKALELRFHGAKVVSCLAEGVSHVIIGEDHSRVADFKAFRRTFKRKFKILKESWVTDSIDKCELQEENQYLI
B4: Proton-coupled zinc antiporter SLC30A8 (Homo sapiens), Q8IWU4 (parent)
chain: MEFLERTYLVNDKAAKMYAFTLESVELQQKPVNKDQCPRERPEELESGGMYHCHSGSKPTEKGANEYAYAKWKLCSASAICFIFMIAEVVGGHIAGSLAVVTDAAHLLIDLTSFLLSLFSLWLSSKPPSKRLTFGWHRAEILGALLSILCIWVVTGVLVYLACERLLYPDYQIQATVMIIVSSCAVAANIVLTVVLHQRCLGHNHKEVQANASVRAAFVHALGDLFQSISVLISALIIYFKPEYKIADPICTFIFSILVLASTITILKDFSILLMEGVPKSLNYSGVKELILAVDGVLSVHSLHIWSLTMNQVILSAHVATAASRDSQVVRREIAKALSKSFTMHSLTIQMESPVDQDPDCLFCEDPCD
partner: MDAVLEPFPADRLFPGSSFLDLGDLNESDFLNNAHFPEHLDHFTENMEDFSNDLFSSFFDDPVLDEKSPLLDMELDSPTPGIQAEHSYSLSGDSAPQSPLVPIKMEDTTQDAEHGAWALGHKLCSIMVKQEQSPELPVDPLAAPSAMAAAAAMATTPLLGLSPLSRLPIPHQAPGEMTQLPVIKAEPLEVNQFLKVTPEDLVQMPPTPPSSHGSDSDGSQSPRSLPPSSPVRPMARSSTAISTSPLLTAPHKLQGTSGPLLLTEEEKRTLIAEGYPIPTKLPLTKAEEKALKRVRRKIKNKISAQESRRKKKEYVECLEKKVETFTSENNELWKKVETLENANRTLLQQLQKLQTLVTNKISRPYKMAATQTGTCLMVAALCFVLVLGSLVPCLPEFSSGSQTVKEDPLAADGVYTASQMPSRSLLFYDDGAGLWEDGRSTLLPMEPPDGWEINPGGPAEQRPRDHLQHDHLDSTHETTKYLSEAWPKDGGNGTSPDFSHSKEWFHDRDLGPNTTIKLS
B5: Lipopolysaccharide-induced tumor necrosis factor-alpha factor (Homo sapiens), Q99732 (parent)
chain: MSVPGPYQAATGPSSAPSAPPSYEETVAVNSYYPTPPAPMPGPTTGLVTGPDGKGMNPPSYYTQPAPIPNNNPITVQTVYVQHPITFLDRPIQMCCPSCNKMIVSQLSYNAGALTWLSCGSLCLLGCIAGCCFIPFCVDALQDVDHYCPNCRALLGTYKRL
partner: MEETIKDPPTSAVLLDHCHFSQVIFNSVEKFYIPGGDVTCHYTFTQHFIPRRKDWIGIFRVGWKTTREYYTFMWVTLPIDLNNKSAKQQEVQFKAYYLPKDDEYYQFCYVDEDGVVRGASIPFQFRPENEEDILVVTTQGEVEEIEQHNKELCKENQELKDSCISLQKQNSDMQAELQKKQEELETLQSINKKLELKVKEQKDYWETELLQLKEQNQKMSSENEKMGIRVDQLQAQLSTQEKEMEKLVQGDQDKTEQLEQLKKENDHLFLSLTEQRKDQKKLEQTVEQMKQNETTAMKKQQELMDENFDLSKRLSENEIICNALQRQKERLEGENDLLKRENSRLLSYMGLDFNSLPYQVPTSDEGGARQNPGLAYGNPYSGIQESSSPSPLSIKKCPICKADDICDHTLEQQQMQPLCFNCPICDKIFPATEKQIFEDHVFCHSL
B6: Inactive peptidyl-prolyl cis-trans isomerase FKBP6 (Homo sapiens), O75344 (parent)
chain: B1 chain
partner: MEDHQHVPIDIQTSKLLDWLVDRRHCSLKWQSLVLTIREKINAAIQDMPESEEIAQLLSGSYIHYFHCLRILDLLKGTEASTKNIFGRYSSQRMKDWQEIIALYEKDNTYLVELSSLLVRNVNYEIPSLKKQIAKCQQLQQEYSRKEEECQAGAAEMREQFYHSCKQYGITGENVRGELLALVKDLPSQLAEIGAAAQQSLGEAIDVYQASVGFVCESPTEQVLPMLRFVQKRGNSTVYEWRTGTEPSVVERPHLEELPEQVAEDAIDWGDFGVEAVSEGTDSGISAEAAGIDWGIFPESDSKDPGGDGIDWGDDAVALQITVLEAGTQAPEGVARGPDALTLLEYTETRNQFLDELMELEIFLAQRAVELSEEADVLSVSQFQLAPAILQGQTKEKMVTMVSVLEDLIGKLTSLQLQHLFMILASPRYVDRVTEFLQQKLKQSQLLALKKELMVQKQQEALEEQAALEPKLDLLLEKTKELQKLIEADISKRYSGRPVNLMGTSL

Variants of: B1
Conditions: with sumo5_human SUMO1P1, G2XKQ0

effect of a mutation on the interaction | Variant
disrupting interaction | F72L

Variants of: B2
Conditions: with tri23_human TRIM23, P36406

effect of a mutation on the interaction | Variant
disrupting interaction | N171K

Variants of: B2
Conditions: with tri23_human TRIM23, P36406
Remark: another data set of the same source

effect of a mutation on the interaction | Variant
disrupting interaction | A463P

Variants of: B2
Conditions: with tri23_human TRIM23, P36406
Remark: another data set of the same source

effect of a mutation on the interaction | Variant
disrupting interaction | I462S

Variants of: B3
Conditions: with xrcc4_human XRCC4, Q13426
Sequence of xrcc4_human XRCC4, Q13426 (Q13426 whole entry): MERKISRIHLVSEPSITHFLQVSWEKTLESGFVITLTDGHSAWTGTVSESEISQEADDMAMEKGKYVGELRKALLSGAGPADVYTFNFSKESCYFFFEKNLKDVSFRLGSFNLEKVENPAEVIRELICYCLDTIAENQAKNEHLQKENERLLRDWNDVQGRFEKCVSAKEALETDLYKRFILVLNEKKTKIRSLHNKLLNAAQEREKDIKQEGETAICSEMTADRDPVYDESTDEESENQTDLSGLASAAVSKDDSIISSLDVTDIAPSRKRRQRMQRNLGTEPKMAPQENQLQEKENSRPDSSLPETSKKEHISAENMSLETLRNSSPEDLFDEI

effect of a mutation on the interaction | Variant
disrupting interaction | A3V

Variants of: B4
Conditions: with cr3l1_human CREB3L1, Q96BA8

effect of a mutation on the interaction | Variant
disrupting interaction | E276W

Variants of: B5
Conditions: with caco2_human CALCOCO2, Q13137

effect of a mutation on the interaction | Variant
disrupting interaction | G112S

Variants of: B5
Conditions: with caco2_human CALCOCO2, Q13137
Remark: another data set of the same source

effect of a mutation on the interaction | Variant
disrupting interaction | A111G

Variants of: B6
Conditions: with ck5p3_human CDK5RAP3, Q96JB5

effect of a mutation on the interaction | Variant
disrupting interaction | F72L
